{
  "source": "paper PMC10514136",
  "about": "“Peptide-conjugated antimiRs improve myotonic dystrophy type 1 phenotypes by promoting endogenous MBNL1 expression” (Molecular Therapy. Nucleic Acids, 2023)",
  "key": {"Clcn1 exon 7a": {"system": "Clcn1 exon 7a", "assay": "Alternative splicing of Clcn1 exon 7a in muscle by RT-PCR (PSI, splice recovery)", "assay_type": "in vivo, mouse", "conditions": "HSALR mice, individual mice", "method": "(§1) Total RNA from murine gastrocnemius and quadriceps muscle was isolated using the miRNeasy Mini Kit (QIAGEN, Hilden, Germany) according to the manufacturer’s instructions. One microgram of RNA was digested with DNase I (Invitrogen, Carlsbad, CA) and reverse transcribed with SuperScript II (Invitrogen) using random hexanucleotides. For subsequent PCR reactions, 20 ng of cDNA was used with GoTaq polymerase (Promega). Specific primers were used to analyze the alternative splicing of Nfix, Atp2a1, and Clcn1 in mouse samples (both muscles). Gapdh levels established the endogenous reference levels using 0.2 ng of cDNA. PCR products were separated on a 2% agarose gel and quantified using ImageJ software (NIH, Bethesda, MD). PSR index was defined as value%SI minus X¯%DSI , divided by X¯%DSI minus X¯%HSI (SI, splicing inclusion of each sample; DSI, disease splicing inclusion; HSI, healthy splicing inclusion). Overall, PSR indicates the amount in both muscles analyzed. Primer sequences and exons analyzed are available in Cerro-Herreros et al.[20] In the case of off-targets, interleukins, and muscle regeneration marker Mstn-1, primers sequences are available in Table S5. We used 1 ng of mouse tissue cDNA as a template for multiplex qPCR using the QuantiFast Probe PCR Kit reagent. Commercial TaqMan probes (QIAGEN) were used for mouse (Mbnl1 and Mbnl2; FAM-labeled probes) and reference (GAPDH; MAX-labeled probe) genes. Results were normalized to Gapdh endogenous gene expression.\n(§2) We used homozygous transgenic HSA^LR (line 20 b) mice,[90] which were kindly provided by Dr Thornton (Rochester, NY) and were housed and bred in our animal facility. Experimental groups were FVB as healthy control and HSA^LR treated with a scrambled ON (SC) and PBS as negative controls, and HSA^LR mice treated with all six experimental CPP-PMOs. The mice were randomly allocated to the different treatments as follows: in each cage, each mouse was ear-marked as it was taken out, and each mouse was then assigned to a different treatment. […] Mice were sacrificed 45 days after the first injection and the tissues of interest were frozen in liquid nitrogen for the molecular and histological assays. All the mice used in this study ranged from 5 to 5.5 months of age and all were males."}, "HSALR mice": {"system": "HSALR mice", "assay": "Serum biochemistry profile", "assay_type": "in vivo, mouse", "conditions": "mouse, in vivo, iv, 9.2 mg/kg", "excerpt": "Mouse handling and experimental procedures followed the European law regarding laboratory animal care and experimentation (2003/65/C.E.) and were approved by Conselleria de Agricultura, […] (reference no. A1539961490857). We used homozygous transgenic HSA^LR (line 20 b) mice,[90] which were kindly provided by Dr Thornton (Rochester, NY) and were housed and bred in our animal facility. […] The mice were randomly allocated to the different treatments as follows: in each cage, each mouse was ear-marked as it was taken out, and each mouse was then assigned to a different treatment. Animals were injected biweekly intravenously with 150 μL of 1× PBS vehicle (controls; […] Mice were sacrificed 45 days after the first injection and the tissues of interest were frozen in liquid nitrogen for the molecular and histological assays. All the mice used in this study ranged from 5 to 5.5 months of age and all were males. At 45 days post treatment, animals were sacrificed, and blood was collected by cardiac puncture exsanguination with K3-EDTA (Sarstedt, Nümbrecht, Germany). The samples were analyzed by Laboratorios Montoro Botella (Valencia, Spain)."}, "DM1 cells": {"system": "DM1 cells", "assay": "Cell proliferation assay (CellTiter 96 AQueous), cell growth inhibition after lipofection", "assay_type": "cell-based, human", "method": "Cells seeded at 10^5 cells/mL in 96-well plates were transfected 24 h later with antimiRs as described previously.[20] After 96 h, cell proliferation was measured using the CellTiter 96 AQueous Non-Radioactive Cell Proliferation Assay (Promega, Madison, WI). Absorbance levels were determined using an Infinite M200 PRO plate reader (Tecan, Männedorf, Switzerland) and the TC50 was calculated using non-linear least-squares regression."}, "[1]": {"assay": "ELISA determination of antimiR conjugate concentrations in tissues", "assay_type": "in vivo, mouse", "conditions": "HSALR mice, 9.2 mg/kg (mean) i.v. x3, day 45; hybridization ELISA, background subtracted; individual mice; 9.2 mg/kg", "method": "Custom ELISA-based measurements of antimiR conjugate concentrations in brain, kidney, liver, heart, gastrocnemius, and quadriceps from treated HSA^LR mice were performed as described in Burki et al.,[89] using the following phosphorothioate probes: for miR-218 (5′ → 3′) [DIG] T∗T∗G∗T∗G∗C∗T∗TGATCTA∗A∗C∗C∗A∗T∗G∗T [BIO]; for miR-23b (5′ → 3′) [BIO] A∗T∗C∗A∗C∗A∗T∗TGCCAGG∗G∗A∗T∗T∗A∗C∗C [DiG] double-labeled with digoxigenin (DIG) and biotin (BIO). In all cases, a control sample was used to subtract the background (HSA^LR treated with PBS for 9b2 and 9b2-KC ONs; HSA^LR treated with Scramble for 6aKC ONs).\nMouse handling and experimental procedures followed the European law regarding laboratory animal care and experimentation (2003/65/C.E.) and were approved by Conselleria de Agricultura, Generalitat Valenciana (reference no. A1539961490857). We used homozygous transgenic HSA^LR (line 20 b) mice,[90] which were kindly provided by Dr Thornton (Rochester, NY) and were housed and bred in our animal facility. Experimental groups were FVB as healthy control and HSA^LR treated with a scrambled ON (SC) and PBS as negative controls, and HSA^LR mice treated with all six experimental CPP-PMOs. The mice were randomly allocated to the different treatments as follows: in each cage, each mouse was ear-marked as it was taken out, and each mouse was then assigned to a different treatment. Animals were injected biweekly intravenously with 150 μL of 1× PBS vehicle (controls; HSA^LR n = 7 and FVB n = 6) or 150 μL of a solution 1.875 mg/mL of the test CPP-PMOs corresponding to an average dose of 9.2 mg/kg (HSA^LR mice: SC n = 5, 9b2-218 n = 5, 9b2-23b n = 5, […] n = 5, […] n = 5, 6aKC-218 n = 5, and 6aKC-23b n = 5; see Table S6 for precise dosing). Mice were sacrificed 45 days after the first injection and the tissues of interest were frozen in liquid nitrogen for the molecular and histological assays. All the mice used in this study ranged from 5 to 5.5 months of age and all were males."}, "Nfix exon 7": {"system": "Nfix exon 7", "assay": "Alternative splicing of Nfix exon 7 in muscle by RT-PCR (PSI, splice recovery)", "assay_type": "in vivo, mouse", "conditions": "HSALR mice, individual mice", "method": "as §1, §2"}, "[2]": {"conditions": "9.2 mg/kg (mean) i.v. x3, day 45, gastrocnemius"}, "[3]": {"conditions": "9.2 mg/kg (mean) i.v. x3, day 45, quadriceps"}},
  "note": "Several values for one entry are separate records, joined by “and”; a condition that tells them apart may be missing. Equal entries are not always repeated.",
  "data": [
    {"substance": "9b2KC-218 (antisense ACAUGGUUAGAUCAAGCACAA; all phosphorodiamidate morpholino (PMO), T or U not given here; Pip9b2KC peptide conjugated)", "values": [
      {"measurement": "Percentage spliced-in (PSI) Clcn1 Gast", "setting": "Clcn1 exon 7a; [2]", "value": "32.73% and 22.25% and 31.59% and 22.57% and 29.41%"},
      {"measurement": "Percentage spliced-in (PSI) Clcn1 Quads", "setting": "Clcn1 exon 7a; [3]", "value": "2.19% and 27.06% and 25.84% and 30.53% and 22.73%"},
      {"measurement": "ALT", "setting": "HSALR mice", "value": "47 ± 10", "unit": "U/L"},
      {"measurement": "Alkaline Phosphatase", "setting": "HSALR mice", "value": "59,8 ± 6,300 U/L"},
      {"measurement": "Amylase", "setting": "HSALR mice", "value": "2593,4 ± 987,253 U/L"},
      {"measurement": "Bile Acids", "setting": "HSALR mice", "value": "55,20 ± 107,339 µmol/L"},
      {"measurement": "Bilirubin", "setting": "HSALR mice", "value": "0,112 ± 0,026 mg/dL"},
      {"measurement": "Creatinine", "setting": "HSALR mice", "value": "0,22 ± 0,084 mg/dL"},
      {"measurement": "Lipase", "setting": "HSALR mice", "value": "134,4 ± 227,401 U/L"},
      {"measurement": "Urea", "setting": "HSALR mice", "value": "41 ± 1,871 mg/dL"},
      {"measurement": "TC50", "setting": "DM1 cells", "value": 88.26, "unit": "nM"},
      {"measurement": "CPP-PMO concentration (pM), Brain", "setting": "[1]", "value": "6.68 pM and 4.47 pM and 1017.83 pM"},
      {"measurement": "CPP-PMO concentration (pM), Gastrocnemius", "setting": "[1]", "value": "726.85 pM and 1065.08 pM and 788.22 pM"},
      {"measurement": "CPP-PMO concentration (pM), Heart", "setting": "[1]", "value": "1724.69 pM and 184.66 pM and 108.67 pM"},
      {"measurement": "CPP-PMO concentration (pM), Kidney", "setting": "[1]", "value": "1320762.73 pM and 1455590.50 pM and 1409556.69 pM"},
      {"measurement": "CPP-PMO concentration (pM), Liver", "setting": "[1]", "value": "12456.78 pM and 13391.72 pM and 5588.09 pM"},
      {"measurement": "CPP-PMO concentration (pM), Quadriceps", "setting": "[1]", "value": "37.03 pM and 1605.97 pM and 358.44 pM"},
      {"measurement": "Percentage spliced-in (PSI) Nfix Gast", "setting": "Nfix exon 7; [2]", "value": "66.68% and 66.91% and 60.18% and 67.84% and 62.07%"},
      {"measurement": "Percentage spliced-in (PSI) Nfix Quads", "setting": "Nfix exon 7; [3]", "value": "48.85% and 67.46% and 51.19% and 51.94% and 21.60%"}
    ]}
  ]
}
